{"source": "patent US20230302100A1", "key": {"[1]": {"biological_target": "adalimumab (Humira)", "experiment": "cell-based or functional assay"}, "[2]": {"biological_target": "denosumab (XGEVA)", "experiment": "cell-based or functional assay"}}, "data": [{"substance": "pCART144 (IdeZ with N terminal methionine and histidine tag) (enzyme)", "values": [{"measurement": "IgG1 (adalimumab) cleavage, SDS-PAGE titration: enzyme concentration of equal cleavage", "setting": "[1]", "value": 4.6, "unit": "ng/mL"}, {"measurement": "IgG2 (denosumab) cleavage, SDS-PAGE titration: enzyme concentration giving a dominating F(ab')2 band", "setting": "[2]", "value": 3.3, "unit": "µg/mL"}, {"measurement": "IgG2 (denosumab) cleavage, SDS-PAGE titration: enzyme concentration giving a single intense scIgG band", "setting": "[2]", "value": 0.12, "unit": "µg/mL"}]}]}
